Laboratory results as given in paper PMC5384220, “Highly selective inhibition of histone demethylases by de novo macrocyclic peptides” (Nature Communications, 2017).

T1: KDM3A (human, UniProt Q9Y4C1 1-1321)
T1 sequence (looked up): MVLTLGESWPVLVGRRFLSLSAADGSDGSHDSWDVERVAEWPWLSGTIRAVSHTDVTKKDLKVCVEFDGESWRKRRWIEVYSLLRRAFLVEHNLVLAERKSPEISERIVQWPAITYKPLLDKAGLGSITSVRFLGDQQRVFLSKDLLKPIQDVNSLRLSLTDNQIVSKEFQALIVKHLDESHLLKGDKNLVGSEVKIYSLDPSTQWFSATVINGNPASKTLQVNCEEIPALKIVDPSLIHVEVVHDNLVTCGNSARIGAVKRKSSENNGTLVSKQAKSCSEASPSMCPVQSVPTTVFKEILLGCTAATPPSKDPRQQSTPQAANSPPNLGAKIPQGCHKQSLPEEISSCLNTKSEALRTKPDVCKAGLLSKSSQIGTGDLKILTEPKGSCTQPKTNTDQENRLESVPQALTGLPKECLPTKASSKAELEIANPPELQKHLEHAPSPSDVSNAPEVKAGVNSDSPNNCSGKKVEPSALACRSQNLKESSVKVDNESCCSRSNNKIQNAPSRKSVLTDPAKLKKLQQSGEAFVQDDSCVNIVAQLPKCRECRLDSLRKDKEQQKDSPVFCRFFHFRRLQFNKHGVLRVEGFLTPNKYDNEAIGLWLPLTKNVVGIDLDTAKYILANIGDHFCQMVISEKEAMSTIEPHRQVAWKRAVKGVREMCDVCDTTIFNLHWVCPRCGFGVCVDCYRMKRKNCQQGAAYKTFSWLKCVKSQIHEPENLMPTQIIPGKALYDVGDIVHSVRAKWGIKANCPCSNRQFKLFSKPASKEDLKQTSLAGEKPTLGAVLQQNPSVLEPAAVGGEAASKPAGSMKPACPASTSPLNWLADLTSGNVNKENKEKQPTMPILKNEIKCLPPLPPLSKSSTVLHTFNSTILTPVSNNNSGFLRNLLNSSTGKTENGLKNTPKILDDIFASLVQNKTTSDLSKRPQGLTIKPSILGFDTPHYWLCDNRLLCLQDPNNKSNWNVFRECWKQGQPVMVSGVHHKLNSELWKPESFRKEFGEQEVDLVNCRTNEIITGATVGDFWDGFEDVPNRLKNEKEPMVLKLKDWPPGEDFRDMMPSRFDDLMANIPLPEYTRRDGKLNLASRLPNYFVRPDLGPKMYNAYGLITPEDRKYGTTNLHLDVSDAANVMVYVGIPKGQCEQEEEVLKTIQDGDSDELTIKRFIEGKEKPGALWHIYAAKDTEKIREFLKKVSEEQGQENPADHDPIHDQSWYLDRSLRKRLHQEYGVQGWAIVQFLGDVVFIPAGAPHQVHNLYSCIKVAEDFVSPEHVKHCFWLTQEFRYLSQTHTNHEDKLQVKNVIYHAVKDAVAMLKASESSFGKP

T2: KDM2A (human, UniProt Q9Y2K7 1-1162)
T2 sequence (looked up): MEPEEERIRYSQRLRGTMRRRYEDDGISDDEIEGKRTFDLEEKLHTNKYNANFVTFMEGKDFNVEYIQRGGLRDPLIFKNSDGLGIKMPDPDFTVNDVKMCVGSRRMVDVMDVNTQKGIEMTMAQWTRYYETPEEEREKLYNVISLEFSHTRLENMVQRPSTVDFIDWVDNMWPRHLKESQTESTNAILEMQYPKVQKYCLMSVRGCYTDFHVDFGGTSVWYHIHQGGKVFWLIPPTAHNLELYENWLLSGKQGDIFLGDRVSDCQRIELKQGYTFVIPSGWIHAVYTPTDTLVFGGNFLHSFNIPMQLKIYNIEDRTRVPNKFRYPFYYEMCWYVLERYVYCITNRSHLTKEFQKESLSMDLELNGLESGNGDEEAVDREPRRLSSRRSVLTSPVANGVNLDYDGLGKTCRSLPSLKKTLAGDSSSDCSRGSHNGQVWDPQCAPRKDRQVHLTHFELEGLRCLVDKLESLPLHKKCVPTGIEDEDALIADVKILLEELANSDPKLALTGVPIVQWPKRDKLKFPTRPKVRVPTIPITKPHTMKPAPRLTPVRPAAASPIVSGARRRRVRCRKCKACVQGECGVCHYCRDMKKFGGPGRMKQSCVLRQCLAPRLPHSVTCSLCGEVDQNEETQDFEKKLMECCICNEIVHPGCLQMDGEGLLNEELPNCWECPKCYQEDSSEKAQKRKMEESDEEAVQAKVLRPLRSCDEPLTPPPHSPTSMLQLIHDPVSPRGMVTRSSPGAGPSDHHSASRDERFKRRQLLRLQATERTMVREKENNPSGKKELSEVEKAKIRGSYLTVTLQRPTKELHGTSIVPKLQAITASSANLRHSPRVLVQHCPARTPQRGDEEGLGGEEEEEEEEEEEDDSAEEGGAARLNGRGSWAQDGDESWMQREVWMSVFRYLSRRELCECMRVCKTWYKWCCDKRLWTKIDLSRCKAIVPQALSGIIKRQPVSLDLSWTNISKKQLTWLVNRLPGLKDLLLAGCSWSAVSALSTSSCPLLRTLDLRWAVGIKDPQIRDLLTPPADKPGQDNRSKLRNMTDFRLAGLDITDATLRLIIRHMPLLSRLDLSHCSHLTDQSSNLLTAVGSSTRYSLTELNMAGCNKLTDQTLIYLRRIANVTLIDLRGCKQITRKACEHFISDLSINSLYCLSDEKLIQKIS

T3: KDM4D (human, UniProt Q6B0I6 1-523)
T3 sequence (looked up): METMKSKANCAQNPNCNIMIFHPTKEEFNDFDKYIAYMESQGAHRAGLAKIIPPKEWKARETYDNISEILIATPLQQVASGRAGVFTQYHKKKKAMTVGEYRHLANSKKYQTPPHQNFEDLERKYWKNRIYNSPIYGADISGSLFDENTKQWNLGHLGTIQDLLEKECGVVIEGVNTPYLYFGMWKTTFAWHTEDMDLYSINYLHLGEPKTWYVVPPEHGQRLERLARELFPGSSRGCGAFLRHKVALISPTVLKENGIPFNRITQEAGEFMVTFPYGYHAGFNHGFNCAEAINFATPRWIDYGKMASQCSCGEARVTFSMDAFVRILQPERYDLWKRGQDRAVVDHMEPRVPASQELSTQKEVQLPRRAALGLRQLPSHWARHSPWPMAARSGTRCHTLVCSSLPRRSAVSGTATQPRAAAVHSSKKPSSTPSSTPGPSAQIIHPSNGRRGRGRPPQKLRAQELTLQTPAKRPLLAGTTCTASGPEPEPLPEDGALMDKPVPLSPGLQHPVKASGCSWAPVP

T4: His-KDM4A_(1–359)-Bio (human, UniProt O75164 1-359, biotin on the AviTag (>95% biotinylation))
T4 construct: KDM4A, residues 1-359, cloned into pNIC-Bio3; also called His-KDM4A-Bio; His-KDM4A with biotin; not shown: AviTag, C-terminal, kept
T4 sequence (looked up): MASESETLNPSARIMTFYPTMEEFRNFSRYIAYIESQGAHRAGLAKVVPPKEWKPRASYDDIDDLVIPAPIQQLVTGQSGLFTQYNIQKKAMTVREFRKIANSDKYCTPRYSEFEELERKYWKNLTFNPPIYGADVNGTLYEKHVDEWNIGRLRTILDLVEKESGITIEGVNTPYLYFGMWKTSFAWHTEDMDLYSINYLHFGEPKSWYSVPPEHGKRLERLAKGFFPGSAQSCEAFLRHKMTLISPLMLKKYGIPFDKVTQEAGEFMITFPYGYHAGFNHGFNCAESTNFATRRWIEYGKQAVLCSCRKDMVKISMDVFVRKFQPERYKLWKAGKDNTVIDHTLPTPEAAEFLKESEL


What was measured:
KDM1A = KDM1A (human, UniProt O60341 1-852); experiment: cell-based or functional assay
KDM5C = KDM5C (human, UniProt P41229 1-1560); experiment: cell-based or functional assay
KDM3A = biological target: T1, KDM3A; experiment: cell-based or functional assay
[1] = biological target: prolyl hydroxylase domain 2 (UniProt Q9GZT9 1-426); experiment: cell-based or functional assay
KDM2A = biological target: T2, KDM2A; experiment: cell-based or functional assay
factor inhibiting HIF = factor inhibiting HIF (UniProt Q9NWT6 1-349); experiment: cell-based or functional assay
KDM4D = biological target: T3, KDM4D; experiment: cell-based or functional assay
KDM6B = KDM6B (human, UniProt O15054 1-1643); experiment: cell-based or functional assay
His-KDM4A_(1–359)-Bio = biological target: T4, His-KDM4A_(1–359)-Bio; experiment: BLI; His-KDM4A(1–359)-Bio (70 nM) immobilised on super streptavidin biosensor, peptides at different concentrations in solution; OctetRed 384; 50 mM HEPES pH 7.5, 150 mM NaCl, 10 μM ammonium iron(II) sulphate; conditions: both partners purified

Sequence of factor inhibiting HIF (Q9NWT6 whole entry): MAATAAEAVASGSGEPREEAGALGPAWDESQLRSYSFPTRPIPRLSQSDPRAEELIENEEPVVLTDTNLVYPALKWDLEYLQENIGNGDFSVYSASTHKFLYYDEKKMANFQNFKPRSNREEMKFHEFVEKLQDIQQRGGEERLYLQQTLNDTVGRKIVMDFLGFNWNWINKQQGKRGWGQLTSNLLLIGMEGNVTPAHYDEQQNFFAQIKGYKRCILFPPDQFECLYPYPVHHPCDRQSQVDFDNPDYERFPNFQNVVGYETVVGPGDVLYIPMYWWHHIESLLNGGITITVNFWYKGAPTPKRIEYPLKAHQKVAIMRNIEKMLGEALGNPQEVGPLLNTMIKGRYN
Sequence of prolyl hydroxylase domain 2 (Q9GZT9 whole entry, the tested form may be a part): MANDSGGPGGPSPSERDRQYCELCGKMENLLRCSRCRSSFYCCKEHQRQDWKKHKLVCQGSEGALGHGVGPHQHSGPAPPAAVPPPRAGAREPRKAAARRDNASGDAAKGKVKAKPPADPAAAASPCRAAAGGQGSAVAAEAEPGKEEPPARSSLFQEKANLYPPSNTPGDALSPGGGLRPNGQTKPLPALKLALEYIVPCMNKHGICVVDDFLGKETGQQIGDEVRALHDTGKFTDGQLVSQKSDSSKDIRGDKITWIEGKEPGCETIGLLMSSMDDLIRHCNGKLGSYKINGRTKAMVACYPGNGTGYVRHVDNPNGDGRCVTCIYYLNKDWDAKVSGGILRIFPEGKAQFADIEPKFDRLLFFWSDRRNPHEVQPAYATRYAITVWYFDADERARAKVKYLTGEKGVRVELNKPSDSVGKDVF
Sequence of KDM6B (O15054 whole entry): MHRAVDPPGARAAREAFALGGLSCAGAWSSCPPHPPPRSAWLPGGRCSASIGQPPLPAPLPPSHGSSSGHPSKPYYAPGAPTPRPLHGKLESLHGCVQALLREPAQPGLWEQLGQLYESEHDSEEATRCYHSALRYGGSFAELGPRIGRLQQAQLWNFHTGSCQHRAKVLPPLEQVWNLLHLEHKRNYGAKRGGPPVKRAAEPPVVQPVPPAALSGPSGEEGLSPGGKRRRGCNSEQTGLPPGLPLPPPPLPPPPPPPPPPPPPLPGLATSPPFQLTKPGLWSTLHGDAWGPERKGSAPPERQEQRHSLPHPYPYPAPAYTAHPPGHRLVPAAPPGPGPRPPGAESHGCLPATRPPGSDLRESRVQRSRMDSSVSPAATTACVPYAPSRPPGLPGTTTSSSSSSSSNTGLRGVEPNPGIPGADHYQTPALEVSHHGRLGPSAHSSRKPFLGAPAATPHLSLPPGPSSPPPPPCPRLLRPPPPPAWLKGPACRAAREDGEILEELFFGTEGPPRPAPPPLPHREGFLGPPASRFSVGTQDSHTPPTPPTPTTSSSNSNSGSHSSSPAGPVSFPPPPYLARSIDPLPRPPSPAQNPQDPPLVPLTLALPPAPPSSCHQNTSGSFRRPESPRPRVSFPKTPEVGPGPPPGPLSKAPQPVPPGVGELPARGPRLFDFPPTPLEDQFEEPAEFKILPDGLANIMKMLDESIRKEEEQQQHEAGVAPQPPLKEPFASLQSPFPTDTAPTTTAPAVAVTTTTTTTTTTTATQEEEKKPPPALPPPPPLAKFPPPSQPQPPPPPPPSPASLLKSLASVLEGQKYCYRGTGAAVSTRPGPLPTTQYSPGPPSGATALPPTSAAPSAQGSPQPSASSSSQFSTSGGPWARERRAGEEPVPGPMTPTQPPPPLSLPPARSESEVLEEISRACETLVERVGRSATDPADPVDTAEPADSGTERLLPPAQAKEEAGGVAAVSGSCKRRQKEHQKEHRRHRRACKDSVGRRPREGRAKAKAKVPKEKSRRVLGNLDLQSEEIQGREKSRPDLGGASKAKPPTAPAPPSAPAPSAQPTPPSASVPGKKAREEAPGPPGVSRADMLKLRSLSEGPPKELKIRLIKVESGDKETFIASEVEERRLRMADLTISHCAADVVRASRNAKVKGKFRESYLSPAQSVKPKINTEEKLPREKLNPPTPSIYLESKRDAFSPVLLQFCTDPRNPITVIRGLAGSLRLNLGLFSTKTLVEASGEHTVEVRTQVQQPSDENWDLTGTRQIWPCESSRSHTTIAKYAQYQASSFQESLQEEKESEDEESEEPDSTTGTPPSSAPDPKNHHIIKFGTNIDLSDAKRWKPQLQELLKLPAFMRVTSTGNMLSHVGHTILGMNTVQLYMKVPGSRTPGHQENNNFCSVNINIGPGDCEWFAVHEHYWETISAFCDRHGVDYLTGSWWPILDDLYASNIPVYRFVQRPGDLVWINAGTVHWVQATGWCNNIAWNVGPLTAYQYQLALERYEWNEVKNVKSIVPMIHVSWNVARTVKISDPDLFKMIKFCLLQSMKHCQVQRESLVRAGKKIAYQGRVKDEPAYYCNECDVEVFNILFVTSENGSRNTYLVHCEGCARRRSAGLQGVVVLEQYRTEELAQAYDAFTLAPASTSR
Sequence of KDM5C (P41229 whole entry): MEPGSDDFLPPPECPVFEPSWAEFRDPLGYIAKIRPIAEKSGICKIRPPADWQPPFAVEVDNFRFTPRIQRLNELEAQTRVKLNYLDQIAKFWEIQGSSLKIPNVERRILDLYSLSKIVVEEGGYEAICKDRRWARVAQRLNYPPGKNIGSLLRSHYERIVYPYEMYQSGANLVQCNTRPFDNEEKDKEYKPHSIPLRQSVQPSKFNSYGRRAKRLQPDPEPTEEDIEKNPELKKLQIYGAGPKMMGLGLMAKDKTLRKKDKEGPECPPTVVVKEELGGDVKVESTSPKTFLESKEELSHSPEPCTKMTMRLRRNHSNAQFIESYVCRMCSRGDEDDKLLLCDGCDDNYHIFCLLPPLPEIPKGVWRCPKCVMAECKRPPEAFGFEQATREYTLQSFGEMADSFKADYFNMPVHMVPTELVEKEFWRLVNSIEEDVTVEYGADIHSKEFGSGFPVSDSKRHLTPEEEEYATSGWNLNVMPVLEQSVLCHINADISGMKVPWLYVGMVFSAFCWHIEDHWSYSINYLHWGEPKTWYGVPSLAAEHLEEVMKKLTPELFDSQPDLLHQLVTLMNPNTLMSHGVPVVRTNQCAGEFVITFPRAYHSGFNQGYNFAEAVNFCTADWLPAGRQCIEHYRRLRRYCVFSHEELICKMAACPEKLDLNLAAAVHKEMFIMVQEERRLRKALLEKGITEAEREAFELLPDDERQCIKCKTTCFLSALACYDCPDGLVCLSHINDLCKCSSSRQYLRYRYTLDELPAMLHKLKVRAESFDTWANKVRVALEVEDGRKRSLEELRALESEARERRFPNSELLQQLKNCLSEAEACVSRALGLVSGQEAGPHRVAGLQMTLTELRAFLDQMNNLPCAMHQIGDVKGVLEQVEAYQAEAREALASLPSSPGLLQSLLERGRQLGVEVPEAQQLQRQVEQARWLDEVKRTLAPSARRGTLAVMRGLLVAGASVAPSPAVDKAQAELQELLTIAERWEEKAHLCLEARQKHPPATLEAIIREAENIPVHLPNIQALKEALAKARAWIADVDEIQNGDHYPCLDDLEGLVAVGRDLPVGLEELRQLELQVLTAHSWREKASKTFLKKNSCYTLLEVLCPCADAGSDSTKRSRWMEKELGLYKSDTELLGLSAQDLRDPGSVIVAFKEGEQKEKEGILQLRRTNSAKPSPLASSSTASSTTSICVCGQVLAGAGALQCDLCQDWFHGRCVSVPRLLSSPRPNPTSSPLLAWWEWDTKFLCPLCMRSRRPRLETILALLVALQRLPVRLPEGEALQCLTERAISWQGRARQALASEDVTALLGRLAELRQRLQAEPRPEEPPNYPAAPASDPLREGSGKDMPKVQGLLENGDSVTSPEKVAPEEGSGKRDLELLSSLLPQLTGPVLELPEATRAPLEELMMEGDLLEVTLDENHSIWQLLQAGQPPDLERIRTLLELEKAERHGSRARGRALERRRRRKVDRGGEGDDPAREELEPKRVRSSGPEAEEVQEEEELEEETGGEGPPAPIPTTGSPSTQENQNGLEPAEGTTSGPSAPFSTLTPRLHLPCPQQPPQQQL

Binder | IC50 of inhibition of KDM1A/LSD1 (fluorescence-based assay) (KDM1A) | IC50 of inhibition of demethylase activity (AlphaScreen activity assay) (KDM5C) | IC50 of inhibition of demethylase activity (AlphaScreen activity assay) (KDM3A) | IC50 of inhibition of PHD2 (MALDI–TOF MS assay) [1] | IC50 of inhibition of demethylase activity (AlphaScreen activity assay) (KDM2A) | IC50 of inhibition of FIH (MALDI–TOF MS assay) (factor inhibiting HIF) | IC50 of inhibition of demethylase activity (AlphaScreen activity assay) (KDM4D) | IC50 of inhibition of demethylase activity (AlphaScreen activity assay) (KDM6B) | fold weaker Kd than the cyclic peptides CP2, CP4 and CP5 (His-KDM4A_(1–359)-Bio)
YSKYTQSGVRWVC (not fully specified; N-terminal L-Tyr (^LTyr library, N-chloroacetyl-L-Tyr) cyclised by a thioether to a downstream cysteine) [CP5] | > 10 µM | > 10 µM | > 10 µM | > 1000 µM | > 10 µM | > 1000 µM | > 10 µM | > 10 µM | 
ARTKQTARKSTGGKA (peptide, UniProt P68431 2-16, looked up, trimethyl-lysine at 9, histone H3, residues 1-15, Lys9 trimethylated; The H3K9me3 substrate of the formaldehyde dehydrogenase coupled assay is not described further; this molecule is used for it; also called histone H3K9 peptide; H3K9me3) [H3(1–15)K9me3] |  |  |  |  |  |  |  |  | > 1000 fold
